Experimental data as given in paper PMC10008561.

Tests used:
human KOR D155A (human) = human KOR D155A (human) (UniProt P41145)
human KOR L253A (human) = human KOR L253A (human) (UniProt P41145)
human KOR R170A (human) = human KOR R170A (human) (UniProt P41145)
human KOR R257A (human) = human KOR R257A (human) (UniProt P41145)

Sequence of GαoA fused with Renilla luciferase (Gα-RLuc8) (P09471 whole entry, the tested form may be a part): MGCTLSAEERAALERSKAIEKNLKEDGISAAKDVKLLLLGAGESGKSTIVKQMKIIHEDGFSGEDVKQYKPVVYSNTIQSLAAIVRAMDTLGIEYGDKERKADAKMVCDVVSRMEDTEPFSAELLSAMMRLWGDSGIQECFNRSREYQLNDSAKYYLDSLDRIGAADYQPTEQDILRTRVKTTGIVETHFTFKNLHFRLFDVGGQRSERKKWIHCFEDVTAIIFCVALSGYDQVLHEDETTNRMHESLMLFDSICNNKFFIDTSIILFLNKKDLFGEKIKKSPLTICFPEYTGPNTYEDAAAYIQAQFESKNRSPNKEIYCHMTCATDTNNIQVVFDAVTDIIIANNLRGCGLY
Sequence of Gα gustducin fused with Renilla luciferase (Gα-RLuc8) (A8MTJ3 whole entry, the tested form may be a part): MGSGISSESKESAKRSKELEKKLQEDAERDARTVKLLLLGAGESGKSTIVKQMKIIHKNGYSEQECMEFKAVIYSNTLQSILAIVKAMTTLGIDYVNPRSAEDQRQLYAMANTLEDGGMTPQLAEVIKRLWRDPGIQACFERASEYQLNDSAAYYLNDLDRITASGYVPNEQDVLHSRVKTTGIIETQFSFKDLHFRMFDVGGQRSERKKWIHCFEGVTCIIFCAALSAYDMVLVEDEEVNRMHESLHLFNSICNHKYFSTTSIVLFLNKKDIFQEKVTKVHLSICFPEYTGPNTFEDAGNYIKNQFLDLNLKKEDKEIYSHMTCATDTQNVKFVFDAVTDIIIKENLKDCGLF
Sequence of Gαi3 fused with Renilla luciferase (Gα-RLuc8) (P08754 whole entry, the tested form may be a part): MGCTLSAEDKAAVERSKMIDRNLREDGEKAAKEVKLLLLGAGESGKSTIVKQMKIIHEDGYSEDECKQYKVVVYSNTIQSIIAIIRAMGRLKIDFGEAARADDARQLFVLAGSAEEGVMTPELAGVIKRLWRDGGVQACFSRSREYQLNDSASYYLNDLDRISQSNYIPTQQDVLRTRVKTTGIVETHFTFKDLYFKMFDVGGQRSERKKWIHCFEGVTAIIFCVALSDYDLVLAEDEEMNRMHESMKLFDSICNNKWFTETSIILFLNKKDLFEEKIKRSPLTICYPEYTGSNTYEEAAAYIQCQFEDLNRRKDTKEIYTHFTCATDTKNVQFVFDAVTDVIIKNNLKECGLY
Sequence of Gαi2 fused with Renilla luciferase (Gα-RLuc8) (P04899 whole entry, the tested form may be a part): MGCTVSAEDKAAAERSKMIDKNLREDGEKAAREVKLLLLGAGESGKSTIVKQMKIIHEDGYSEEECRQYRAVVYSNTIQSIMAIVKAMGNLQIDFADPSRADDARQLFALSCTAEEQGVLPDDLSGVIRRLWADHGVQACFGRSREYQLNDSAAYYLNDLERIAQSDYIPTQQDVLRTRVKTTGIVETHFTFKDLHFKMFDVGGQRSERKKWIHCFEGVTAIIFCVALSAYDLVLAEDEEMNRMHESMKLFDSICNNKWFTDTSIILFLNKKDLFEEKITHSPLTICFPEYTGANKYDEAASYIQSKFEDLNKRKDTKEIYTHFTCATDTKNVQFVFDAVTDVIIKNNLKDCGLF
Sequence of GαoB fused with Renilla luciferase (Gα-RLuc8) (P09471 other isoform, or with tags, fused parts or gaps): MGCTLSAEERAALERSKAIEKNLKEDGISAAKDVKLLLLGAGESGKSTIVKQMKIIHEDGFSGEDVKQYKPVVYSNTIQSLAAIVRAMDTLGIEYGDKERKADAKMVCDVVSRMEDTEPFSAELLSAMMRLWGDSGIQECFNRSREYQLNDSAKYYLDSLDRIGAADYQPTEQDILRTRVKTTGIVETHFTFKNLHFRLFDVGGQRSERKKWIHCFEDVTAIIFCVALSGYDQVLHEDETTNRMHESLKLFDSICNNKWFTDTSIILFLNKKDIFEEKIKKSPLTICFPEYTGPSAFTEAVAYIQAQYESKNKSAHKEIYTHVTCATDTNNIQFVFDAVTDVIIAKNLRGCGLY
Sequence of Gαz fused with Renilla luciferase (Gα-RLuc8) (P19086 whole entry, the tested form may be a part): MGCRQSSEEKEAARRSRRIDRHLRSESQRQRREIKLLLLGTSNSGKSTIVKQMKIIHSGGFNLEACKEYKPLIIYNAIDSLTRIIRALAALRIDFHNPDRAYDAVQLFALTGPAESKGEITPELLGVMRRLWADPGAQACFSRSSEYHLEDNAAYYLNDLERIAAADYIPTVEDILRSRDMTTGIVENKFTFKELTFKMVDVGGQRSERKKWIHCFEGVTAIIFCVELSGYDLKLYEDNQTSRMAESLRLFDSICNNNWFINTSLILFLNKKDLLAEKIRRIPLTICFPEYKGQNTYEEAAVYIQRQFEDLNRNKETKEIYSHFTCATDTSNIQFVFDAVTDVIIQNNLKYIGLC

| Substance | BRET2 G protein activation (TRUPATH); fold decrease of the potency of nalfurafine against wild-type KOR (human KOR D155A (human)) [fold] | BRET2 G protein activation (TRUPATH) with nalfurafine; fold decrease against wild-type KOR (human KOR L253A (human)) [fold] | BRET2 G protein activation (TRUPATH); fold decrease of the potency of nalfurafine against wild-type KOR (human KOR R170A (human)) [fold] | BRET2 G protein activation (TRUPATH) with nalfurafine; fold decrease against wild-type KOR (human KOR R257A (human)) [fold] |
| --- | --- | --- | --- | --- |
| GαoB fused with Renilla luciferase (Gα-RLuc8) (from UniProt P09471-2 1-354) (natural protein) | < 10 | 10 | 10 | 10 |
| Gαz fused with Renilla luciferase (Gα-RLuc8) (from UniProt P19086 1-355) (natural protein) | < 10 | 10 | 10 | 10 |
| Gαi3 fused with Renilla luciferase (Gα-RLuc8) (from UniProt P08754 1-354) (natural protein) | < 10 | 100 | 100 | 100 |
| Gαi2 fused with Renilla luciferase (Gα-RLuc8) (from UniProt P04899 1-355) (natural protein) | < 10 | 100 | 100 | 100 |
| GαoA fused with Renilla luciferase (Gα-RLuc8) (from UniProt P09471 1-354) (natural protein) | < 10 | 10 | 10 | 10 |
| Gα gustducin fused with Renilla luciferase (Gα-RLuc8) (from UniProt A8MTJ3 1-354) (natural protein) | < 10 | 10 | 10 | 10 |
